Here are results for ten sequences from a protein production outcome set (Wang et al. 2014).

This series in a line: label from the status in PepcDB records.

In the case of “MDHIRTHNTHHARKSADHLCVITDGGVSAIDRVSQRNIRVRLGAEHHDQLFCQAHGLKRLLPGKSIDLHKDKKWRTLICSITKNPETSMTPDAARKNSPEMKPRKKKKRQFRQLFARSLQRLARTRSGSAEFSGPLRSVAILAQEKLGDCVLLTPLVRNLRQAFPDLEIHLITFSRASANFFMNDPQVTAVHLVKKQPRRYFREVLSRKFDLLFNTKDHPSTWFLLQSALIRARFKVGHNNPFHEGLYDRLLDTEFHAHMAVKNCALLPLLGVTADTEACRPSLPAMPVSNEIWQLLSRLAEDIRPIGVNISAGEPNRLWTEAKWRALLERFPGERFVVLSGPDDLDAKRRLEEQCPNAVASPPTRNLYEASCIVAKLRLLVTPDTSMVHVASATGTPVAGLYREAPQDISRFGPYAIPYEIVISPTGEVSGIKPESVADAVRRLMARAIGREA”, the protein production entry is listed as “failed”.

For “MDHKKVAERVIKDVGRDNIIAGAHCATRLRLVLKDDSKVDQKALDNDPDVKGTFKTNGQYQVIIGPGDVNDVYDEFIKITGLKELSTDDLKKVAAEGQKKNPIMDFIKLLSDIFVPIIPALVAGGLLMALNNFLTSPGLFGPKSVVQMAPNVAGISSMIQVMSAAPFIFMPILVGMSAAKRFGANQFLGATIGMIMTTPGLGGATKFWDIFGLHVAQTNYQYQVIPVLVAVWVLSIFEKYFHKHLPSAVDFTFTPLLSIMITGFLTFTIIGPVFKGVSDAITNAIVWLYDTTGAFGMGVFGLSYSAIVTTGLHQSFPAVETQLLAAFAKNPASSGDFIFVTACMANVAQGAATFAVYFLTKNKKMKGLASSSGVSALLGITEPALFGVNLKYKFPFFCALIGSGVAAAFAGLMHVTAAALGSAGFLGFLSIYPRTIPMWVVSVAISFAVSFILTYVYGKSHLKEEVAEQDVPVNDATDYAEETQKAEKIGKEQLALKDEIIYSPVDGTPESLTKVNDQVFSAKLMGDGAAVIPSDGTIYAPVTGTVTIAYETKHAYGIKSDDGAEVLIHIGLDTVNLKGEHFESFVKQGQRVEKGDKLGSVDLDAVKKAGYDTTVMVVITNTANYANVQRITDAGDKHGDKLIAVTAHE”, the protein production entry is listed as “failed”.

Consider “MDIDASSCPELYARRAYGAEMTSQHQNTPSSEQIRRAPKVLLHDHLDGGLRPGTIVELARDAGYSGLPETDPDKLGIWFREAADSGSLERYLETFAHTCAVMQTRAALVRVAAECAEDLAADGVVYAEVRYAPEQHLEAGLSLEEVVEAVNEGFRAGERRAKEDGNRIRVGALLTAMRHAARALEIAELANRYRDAGVVGFDIAGAEAGFPPTRHLDAFEYLKRENNHFTIHAGEAFGLPSIWQALQWCGADRLGHGVRIIDDIQVREDGSVKLGRLASYVRDKRIPLELCPSSNLQTGAASSYADHPIGLLRRLHFRATVNTDNRLMSGTSMSREFEHLVDAFGYTLDDMAWFSVNAMKSAFIPFDERLAMINDVIKPGYAELKSEWLFKQTASTSSSAASEE”, for which the protein production entry is “not failed”.

In the case of “MDIEDLRTFVAVADAGGVSAAARRLGISKSIVSRRLFRIEAELGVQLLARTTRGAALTEAGITFRDHAARASAEIDTARETILPAGELHGRLRIAMPLTFGPTHFAPVLAEMARQHPQLHIHTSYSDRFVDLIAEGFDCAIRGAYLQDSNLIAKRVGPIHGKLVASPAYIKAHGSPEMVEQLVNHQALMQGTEAWQFMDGDRIVTVQPQGKFKADSATALAAAAAAGLGIAWLPDCITHAYLASGALVPIMTRYPVPPGAVYVVRPPSQHPARKVRVLTEMLTEYFKRTPELWGVDG”, the protein production result is “failed”.

On to “MDIHIKPINTFAHAEMDALYTMIFHFYEEYDPTHVITKESINDTIIHLTNHPESGSIQFVYDAENALVGYVILIKYWSNEYQGYLLFIDELYIVPDKRSLGYGRTCITLIEKTFHDIQALALEVSPKNTRAQAFYLQLGFLPNKNKTFIKIKY”, for which the protein production result is on record as “failed”.

For “MDIKEAGPFPVKKEQFRMTVNGQAWEVAAVPTTHLSDLLRKEFQLTGTKVSCGIGRCGACSILIDGKLANACMTMAYQADGHSITTIEGLQKEELDMCQTAFLEEGGFQCGYCTPGMIIALKALFRETPQPSDKDIEEGLAGNLCRCTGYGGIMRSACRIRRELNGGRRESGF”, the protein production result is reported as “failed”.

Regarding “MDIQGLLERLKPFIIIVLLFSVVFYIRAEASNIGGVPADAKKFYEDADGLPYFSEMDSYYNYRLTMNYLTKGIMGDTLVDGKPYDLHSYYPPGRPVDYPPLIVYVTSAAYRVLNFFGDFSLKEVAFWMGAFIGSLCVIPAYLFVRRITNDYGGFAAALIVGLVPTYVAHTYAGFFDTDMFNFVLPLFVFWFFTEGMLASSMRGKVGYALAAAVSILVFSAAWVGYIFYLAVLIVFVAAYLVISRYILGEKPAGEFEGKLDWLIHQRELFPLLILIIAGGVLVGVFGGFSSLAGAVGGLIGATQIQATAQTTAYPNVYVSVSELQVPEFITTGAGNIFLPGQNTIVGGVGGLLVFIIGVLGVGALVWKYRQPEVVVEESENRPRAGKKSKFMRKKRAAVASEEMRHRYLLYAVLMAVWLIMSGYAVTKGSRFIPTFAMPLGLSAGIFTGFLVEYLRVRFTTTSSLALIVFVAAVAMVMPFGVSVAVKLLAGVLAAGFIYSVKKPEIRAPFMMVLVVLAAVAPSVSGAHSITTSVAPGTDDGMWNSMQWVKKNTSRDTVVMSWWDFGHLFAVAADRPVTFDGGSQNTPRAYWIGKALTTSNETLSRGILTMLSTSGDLAYETLDNYTDDSGKTAEILTATLGLPREEARAVMTGRYGLSDKEADSVLRYSHPAKPKPFVLVLSSDMLGKAPWWTYFGTWDFKKKTGSRYGYYPSLASSKPQVVNNTTVIQTVNTMVDQNNVLGTIIEKKANTTNATIAVGNNMTVQKINPHRLTIIEGDLLVKNEVVDSDAQLSLIVIGSGNQYTTIIMNRELEDSVFTKLFLLGGFNQTSFKFLHQEPGVLLWTAA”, the protein production entry is “failed”.

Consider “MDISLLKQVVQSTNKIALSTAVNNEADVKIVNFVWYEAQPDTLYFSSVKTSPALKVYDQNPDIAFITIPNDGTAGNPYLRAQHVKLQRSTKTMTDLLPQYLETVPNYQQVWDAIGSTLVVFELKLTDLFVDAGVGGEKQTLTFN”, for which the protein production entry is given as “not failed”.

With “MDITSLINANVICLDLTSTSKEDILQEMVQILDDAGKLSNKTQFLSDVWAREEIGNTGFEDGIAIPHAKSSAVLTPSVAIGISRTGIDYGAEDGEPSDIFFMLASTDGDDNQHIEALAQISSRLIEDGFTNKLKKADSKEEILDLFTDIIQPNTESTDIENAPSQIEKSELTRKLGRTKEHLLFGTSHMIPFIVAGGVLLSLSVMISGQGAVPTEGILADIAQMGIAGLTLFTAVLGGYIAYSIADKPGLAPGMIGSWIAVQQYNTGFLGAIIIGFFAGFVVRSLKKIKLPESMASLGSIFIYPLVGTFLTCAAVMWVIGAPISNAMAALNEWLASMAGSGKIALGAILGAMAAFDMGGPINKVATLFAQTQVNTQPWLMGGVGIAICTPPLGMALATFLSPKKFKRDEREAGKAAGIMGMIGITEGAIPFAAADPARVIPAIVAGGIVGNITGFVFNVLNHAPWGGWIVLPVVDGKIGYIIGTLLGAFTTAAIVILLKKNAVEDDEHTQQKFTFESVKNEGEADVLAVTACPSGVAHTFLAAKSLEKAAHKLGIKIKVETQGADGINNRITPLDIKNAKLVIFAHDVAIKEPLRFKGMRTLDIATKDAMYSAEQLLNDNLTKHHKRFSKA”, the protein production entry was “failed”.

“MDKKEYSETFYHPYKPYDIQVQLMETVYRVLSEGKKIAILESPTGTGKTLSLICATMTWLRMNKADIFTRMETNIKTNEDDSENLSDDEPDWVIDTYRKSVLQEKVDLLNDYEKHLNEINTTSCKQLKTMCDLDKEHGRYKSVDPLRKKRKGARHLDVSLEEQDFIPRPYESDSENNDTSKSTRGGRISDKDYKLSELNSQIITLLDKIDGKVSRDPNNGDRFDVTNQNPVKIYYASRTYSQLGQFTSQLRLPSFPSSFRDKVPDEKVKYLPLASKKQLCINPKVMKWKTLEAINDACADLRHSKEGCIFYQNTNEWRHCPDTLALRDMIFSEIQDIEDLVPLGKSLGICPYYASREALPIAEVVTLPYQYLLSESTRSSLQINLENSIVIIDEAHNLIETINSIYSSQISLEDLKNCHKGIVTYFNKFKSRLNPGNRVNLLKLNSLLMTLIQFIVKNFKKIGQEIDPNDMFTGSNIDTLNIHKLLRYIKVSKIAYKIDTYNQALKEEESSKNENPIKETHKKSVSSQPLLFKVSQFLYCLTNLTSEGQFFFEKNYSIKYMLLEPSKPFESILNQAKCVVLAGGTMEPMSEFLSNLLPEVPSEDITTLSCNHVIPKENLQTYITNQPELEFTFEKRMSPSLVNNHLFQFFVDLSKAVPKKGGIVAFFPSYQYLAHVIQCWKQNDRFATLNNVRKIFYEAKDGDDILSGYSDSVAEGRGSLLLAIVGGKLSEGINFQDDLCRAVVMVGLPFPNIFSGELIVKRKHLAAKIMKSGGTEEEASRATKEFMENICMKAVNQSVGRAIRHANDYANIYLLDVRYNRPNFRKKLSRWVQDSINSEHTTHQVISSTRKFFSMRSLNSR”: the protein production result was “failed”.
